In patent US20230167174A1:

Assays:
[1] = target: cynomolgus TREM2 on CHO-hDAP12-cyTREM2 cells (cynomolgus); assay: FACS, CHO-cyTREM2
[2] = target: T1, human TREM2 endogenously expressed (hM2A macrophages, THP1-B5 cells, iPS derived microglia) (human) (UniProt Q9NZC2); assay: FACS, hM2A
T1 sequence (looked up): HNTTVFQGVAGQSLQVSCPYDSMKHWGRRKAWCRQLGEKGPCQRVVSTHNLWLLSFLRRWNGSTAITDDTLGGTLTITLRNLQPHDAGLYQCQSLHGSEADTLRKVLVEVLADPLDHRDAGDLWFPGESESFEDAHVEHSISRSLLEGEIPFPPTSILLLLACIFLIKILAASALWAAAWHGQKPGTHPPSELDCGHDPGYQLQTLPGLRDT

[3] = target: T2, hTREM2 ECD (19-174)-hFc (human) (UniProt Q9NZC2); assay: SET screening
T2 sequence (chain, biotinylated where printed -bio): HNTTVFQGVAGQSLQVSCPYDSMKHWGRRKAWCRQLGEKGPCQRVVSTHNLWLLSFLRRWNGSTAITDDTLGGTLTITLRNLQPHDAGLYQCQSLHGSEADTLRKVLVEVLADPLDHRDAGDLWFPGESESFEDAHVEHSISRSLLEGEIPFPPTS

[4] = target: T1, human TREM2 endogenously expressed (hM2A macrophages, THP1-B5 cells, iPS derived microglia) (human); assay: FACS, hM2A, donor 2
[5] = target: T1, human TREM2 endogenously expressed (hM2A macrophages, THP1-B5 cells, iPS derived microglia) (human); assay: FACS, hM2A, donor 1
[6] = target: T3, human TREM2 on CHO-hDAP12-hTREM2 cells (human) (UniProt Q9NZC2); assay: FACS, CHO-hTREM2
T3 sequence: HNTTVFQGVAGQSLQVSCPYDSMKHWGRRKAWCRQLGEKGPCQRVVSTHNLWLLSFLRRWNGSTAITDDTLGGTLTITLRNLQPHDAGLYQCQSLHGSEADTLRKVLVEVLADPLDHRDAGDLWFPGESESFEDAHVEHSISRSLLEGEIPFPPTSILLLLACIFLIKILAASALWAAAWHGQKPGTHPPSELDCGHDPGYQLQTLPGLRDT

[7] = target: T1, human TREM2 endogenously expressed (hM2A macrophages, THP1-B5 cells, iPS derived microglia) (human); assay: cell-based or functional assay
[8] = target: T3, human TREM2 on CHO-hDAP12-hTREM2 cells (human); assay: cell-based or functional assay
[9] = target: T1, human TREM2 endogenously expressed (hM2A macrophages, THP1-B5 cells, iPS derived microglia) (human); assay: FACS, hM2A, median of 4 donors
[10] = target: T1, human TREM2 endogenously expressed (hM2A macrophages, THP1-B5 cells, iPS derived microglia) (human); assay: FACS, hM2A, donor 3
[11] = target: T1, human TREM2 endogenously expressed (hM2A macrophages, THP1-B5 cells, iPS derived microglia) (human); assay: FACS, hM2A, donor 4
[12] = target: T2, hTREM2 ECD (19-174)-hFc (human); assay: SPR, label free kinetics
[13] = target: cyTREM2 ECD (19-174)-APP-Avi (cynomolgus); assay: SPR, label free kinetics
[14] = target: T4, hTREM2 IgSF-hTREM1 stalk-hFc (human) (UniProt Q9NZC2); assay: recombinant protein binding
T4 sequence (looked up): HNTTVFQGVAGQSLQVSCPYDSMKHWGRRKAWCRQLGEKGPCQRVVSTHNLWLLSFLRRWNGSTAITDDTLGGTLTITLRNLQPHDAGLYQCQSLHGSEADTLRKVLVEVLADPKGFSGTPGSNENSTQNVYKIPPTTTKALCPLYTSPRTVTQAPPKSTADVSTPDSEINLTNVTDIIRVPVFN

[15] = target: T2, hTREM2 ECD (19-174)-hFc (human); assay: recombinant protein binding
[16] = target: cyTREM2 ECD (19-174)-hFc (cynomolgus); assay: recombinant protein binding
[17] = target: T2, hTREM2 ECD (19-174)-hFc (human); assay: SET
[18] = target: cyTREM2 ECD (19-174)-APP-Avi (cynomolgus); assay: SET

Chain of cynomolgus TREM2 on CHO-hDAP12-cyTREM2 cells (cynomolgus) (chain, as listed by the source): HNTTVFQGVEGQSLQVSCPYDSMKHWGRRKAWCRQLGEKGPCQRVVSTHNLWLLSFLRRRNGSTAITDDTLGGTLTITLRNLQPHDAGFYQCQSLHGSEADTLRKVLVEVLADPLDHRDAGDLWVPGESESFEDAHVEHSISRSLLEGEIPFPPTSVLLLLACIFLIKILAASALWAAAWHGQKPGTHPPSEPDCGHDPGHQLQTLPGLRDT

EC50 [1]: 0.65 nM
EC50 [2]: < 2 nM
Kd [3]: < 0.6 nM
EC50 [4]: 0.54 nM
EC50 [5]: 0.73 nM
EC50 [6]: 0.16 nM
Fold TREM2 cell surface increase compared to isotype (hM2A, 100 nM) [7]: 5.1 fold
TREM2 activation (fold in RGA) [7]: 1.3 fold
lowest active concentration, phagocytosis in hM2A [7]: 1 nM
Internalization compared to parental after 6 h [8]: 0.7 fold
Internalization; fold over background after 6 h [8]: 33.3 fold
EC50 [9]: 0.59 nM
EC50 [10]: 0.54 nM
EC50 [11]: 0.64 nM
Kd [12]: 0.003 nM
Kd [13]: 0.004 nM
S/BG [14]: > 20
S/BG [15]: > 5
S/BG [16]: > 5
Kd [17]: 0.003 nM
Kd [18]: 0.004 nM
B1: MOR044746 (antibody, from a related filing, V domains shown)
VH: QVQLQQSGPGLVKPSQTLSLTCAISGDSVSSSSAAWNWIRQSPSRGLEWLGHIGYRSKWYNEYAVSVKSRITINPDTSKNQFSLQLNSVTPEDTAVYYCARGMYGSVPYKEGYYFDIWGQGTLVTVSS
VL: DIQMTQSPSSLSASVGDRVTITCRASQGISSDLNWYQQKPGKAPKLLIYAASNLQSGVPSRFSGSGSGTDFTLTISSLQPEDFATYYCQQYTDESMTFGQGTKVEIK
